From patent US20180355043A1 (Janssen / Centocor, published 2018)
Where two headings read alike, the source gives them in different places.

How the values were obtained:
[1] = target: T1, DR4G104: Human HLA-DRA1*01:02/DRB1*04:02 ECD with hemagglutinin peptide HA_304-318 (human); assay: MSD ECL; antigen coated
T1 construct: also called DRB1*04:02 HA

[2] = target: T2, DR4G103: Human HLA-DRA1*01:02/DRB1*15:01 ECD with hemagglutinin peptide HA_304-318 (human); assay: MSD ECL; antigen coated
T2 construct: also called DRB1*15:01 HA

[3] = target: T1, DR4G104: Human …; assay: MSD ECL; antigen coated; protocol of Example 3
[4] = target: T3, DR4G119: Human HLA-DRA1*01:02/DRB1*10:01 ECD with hemagglutinin peptide HA_304-318 (human); assay: MSD ECL; antigen coated; protocol of Example 3
T3 construct: also called DRB1*10:01 HA

[5] = target: T4, DR4G93: Human HLA-DRA1*01:02/DRB1*01:01 ECD with hemagglutinin peptide HA_304-318 (human); assay: MSD ECL; antigen coated; mAb 0.2 µg/ml
T4 construct: also called HLA-DR1 with HA_304-318
Procedure: (§1) Select generated antibodies were characterized for their binding to soluble HLA-DR, HLA-DQ or HLA-DP antigens with various peptides attached to the N-terminus of the beta chains. […] The soluble antigens of DR, DP and DQ were coated on MSD standard plates (Meso Scale Discovery, Cat. No. L15XA-3) at 5 μg/ml at 4° C. overnight. […] Binding to DR antigens was tested with four antibody concentrations ranging from 0.04-5 μg/ml. Binding to DP and DQ antigens was tested with one concentration at 5 μg/ml. After three washes, SulfoTag anti-human/NHP Kappa secondary antibody (Meso Scale Discovery, Cat. No. D20TF-6) was added and incubated for 1 hour. After another three washes, the plates were read under MSD reader (Meso Scale Discovery), and electrochemiluminescence (ECL) was measured.

[6] = target: T5, DR4G89: Human HLA-DRA1*01:02/DRB1*04:01 ECD with hemagglutinin peptide HA_304-318 (human); assay: MSD ECL; antigen coated; mAb 0.2 µg/ml
T5 construct: also called DRG89; HLA-DR4 with HA_304-318
Procedure: as §1

[7] = target: T2, DR4G103: Human …; assay: MSD ECL; antigen coated; protocol of Example 3
Procedure: as §1
Select antibodies were further characterized for their binding to soluble HLA-DR, HLA-DQ and HLA-DP antigens in complex with various peptides which were covalently attached to the N-terminus of the beta chains.

[8] = target: T4, DR4G93: Human HLA-DRA1*01:02/DRB1*01:01 …; assay: MSD ECL; antigen coated; mAb 0.2 µg/ml; remark: listed apart in the source
[9] = target: T5, DR4G89: Human HLA-DRA1*01:02/DRB1*04:01 …; assay: MSD ECL; antigen coated; mAb 0.2 µg/ml; remark: listed apart in the source
[10] = target: T5, DR4G89: Human HLA-DRA1*01:02/DRB1*04:01 …; assay: SPR ProteOn XPR36; mAb amine-coupled, antigen as analyte; 25 °C
[11] = target: T4, DR4G93: Human HLA-DRA1*01:02/DRB1*01:01 …; assay: as above
[12] = target: T4, DR4G93: Human HLA-DRA1*01:02/DRB1*01:01 …; assay: MSD ECL; antigen coated
[13] = target: T5, DR4G89: Human HLA-DRA1*01:02/DRB1*04:01 …; assay: MSD ECL; antigen coated

Binder	ECL signal [3]	ECL signal [4]	ECL signal [5]	ECL signal [6]	ECL signal [7]	ECL signal [8]	ECL signal [9]	further results
DR4B4 (antibody, V domains shown, also called Lym-1 re-engineered as IgG2sigma) VH: QVQLKESGPGLVAPSQSLSITCTISGFSLTSYGVHWVRQPPGKGLEWLVVIWSDGSTTYNSALKSRLSISKDNSKSQVFLKMNSLQTDDTAIYYCASHYGSTLAFASWGHGTLVTVSA VL: DIQMTQSPASLSASVGETVTIICRASVNIYSYLAWYQQKQGKSPQLLVYNAKILAEGVPSRFSGSGSGTQFSLKINSLQPEDFGSYYCQHHYGPFTFGSGTKLEIK	451 ECL	572000 ECL	888000 ECL	1.28e+06 ECL	287 ECL			binding result [1]: no binding; binding result [2]: no binding
DR4B6 (antibody, V domains shown, also called L243 re-engineered as IgG2sigma) VH: QIQLVQSGPELKKPGETVKISCKASGFTFTNYGMNWVKQAPGKGLKWMGWINTYTREPTYADDFKGRFAFSLETSASTAYLQINNLKNEDTAKYFCARDITAVVPTGFDYWGQGTTLTVSS VL: DIQMTQSPASLSVSVGETVTITCRASENIYSNLAWYRQKQGKSPQLLVFAASNLADGVPSRFSGSGSGTQYSLKINSLQSEDFGDYYCQHFWTTPWAFGGGTNLEIK	415000 ECL	580000 ECL	1.32e+06 ECL	1.34e+06 ECL	142000 ECL			
DR4B5 (antibody, V domains shown, also called apolizumab (1D10) re-engineered as IgG2sigma) VH: QVQLQESGPGLVKPSETLSLTCTVSGFSLTNYGVHWVRQSPGKGLEWIGVKWSGGSTEYNAAFISRLTISKDTSKNQVSLKLNSLTAADTAVYYCARNDRYAMDYWGQGTLVTVSS VL: DIQMTQSPSSLSASVGDRVTITCRASENIYSYLAWYQQKPGKAPKLLVSNAKTLAEGVPSRFSGSGSGKQFTLTISSLQPEDFATYYCQHHYGNSYPFGQGTKLEIK	825 ECL	132000 ECL	1.3e+06 ECL	1.26e+06 ECL	329 ECL			binding result [1]: no binding; binding result [2]: no binding
DR4B98 (antibody, human IgG2, kappa, V domains shown, also called VH DR4H50 / VL PH9L3) VH: QVQLVQSGAEVKKPGSSVKVSCKASGGTFKSYYIHWVRQAPGQGLEWMGGIAPIYGTAYYAQKFQGRVTITADESTSTAYMELSSLRSEDTAVYYCARDASWARAYGFDYWGQGTLVTVSS VL: EIVLTQSPATLSLSPGERATLSCRASQSVSSYLAWYQQKPGQAPRLLIYDASNRATGIPARFSGSGSGTDFTLTISSLEPEDFAVYYCQQRSNWPLTFGQGTKVEIKR	421000 ECL	94700 ECL	140000 ECL	775000 ECL	34700 ECL			
DR4B30 (antibody, human IgG2, kappa, V domains shown, also called VH DR4H39 / VL PH9L3) VH: EVQLVQSGAEVKKPGESLKISCKGSGYSFTSDWIGWVRQMPGKGLEWMGIIRPGDSDTYYSPSFQGQVTISADKSISTAYLQWSSLKASDTAVYYCARESYYYVGVRYRPSYYFDYWGQGTLVTVSS VL: EIVLTQSPATLSLSPGERATLSCRASQSVSSYLAWYQQKPGQAPRLLIYDASNRATGIPARFSGSGSGTDFTLTISSLEPEDFAVYYCQQRSNWPLTFGQGTKVEIKR			1.07e+06 ECL	1.13e+06 ECL		1.07e+06 ECL	1.13e+06 ECL	
DR4B78 (antibody, human IgG2, kappa, V domains shown, also called VH DR4H62 / VL PH9L3) VH: not shown VL: EIVLTQSPATLSLSPGERATLSCRASQSVSSYLAWYQQKPGQAPRLLIYDASNRATGIPARFSGSGSGTDFTLTISSLEPEDFAVYYCQQRSNWPLTFGQGTKVEIKR						1.06e+06 ECL	979000 ECL	
DR4B22 (antibody, human IgG2, kappa, V domains shown, also called VH DR4H16 / VL PH9L3) VH: EVQLLESGGGLVQPGGSLRLSCAASGFTFSSYAMNWVRQAPGKGLEWVSAISGSGGYTNYADSVKGRFTISRDNSKNTLYLQMNSLRAEDTAVYYCARDGGYYRYVYRYPGDYAFGYWGQGTLVTVSS VL: EIVLTQSPATLSLSPGERATLSCRASQSVSSYLAWYQQKPGQAPRLLIYDASNRATGIPARFSGSGSGTDFTLTISSLEPEDFAVYYCQQRSNWPLTFGQGTKVEIKR						896000 ECL	1.01e+06 ECL	
DR4B70 (antibody, human IgG2, kappa, V domains shown, also called VH DR4H29 / VL PH9L3) VH: not shown VL: EIVLTQSPATLSLSPGERATLSCRASQSVSSYLAWYQQKPGQAPRLLIYDASNRATGIPARFSGSGSGTDFTLTISSLEPEDFAVYYCQQRSNWPLTFGQGTKVEIKR						972000 ECL	888000 ECL	
DR4B127 (antibody, human IgG2, kappa, V domains shown, also called VH DR4H7 / VL PH9L3) VH: QVQLVQSGAEVKKPGSSVKVSCKASGGTFKSYYIHWVRQAPGQGLEWMGGIRPISGNAEYAQKFQGRVTITADESTSTAYMELSSLRSEDTAVYYCARDASYYRNYGFDYWGQGTLVTVSS VL: EIVLTQSPATLSLSPGERATLSCRASQSVSSYLAWYQQKPGQAPRLLIYDASNRATGIPARFSGSGSGTDFTLTISSLEPEDFAVYYCQQRSNWPLTFGQGTKVEIKR	1.27e+06 ECL	1.24e+06 ECL	918000 ECL	1.03e+06 ECL	334000 ECL			Kd [10]: 9.19 nM; koff [10]: 0.000155 s⁻¹; kon [10]: 16800 M⁻¹ s⁻¹; Kd [11]: 47.7 nM; koff [11]: 0.00092 s⁻¹; kon [11]: 19300 M⁻¹ s⁻¹
DR4B38 (antibody, human IgG2, kappa, V domains shown, also called VH DR4H56 / VL PH9L3) VH: not shown VL: EIVLTQSPATLSLSPGERATLSCRASQSVSSYLAWYQQKPGQAPRLLIYDASNRATGIPARFSGSGSGTDFTLTISSLEPEDFAVYYCQQRSNWPLTFGQGTKVEIKR						1.12e+06 ECL	1.22e+06 ECL	
DR4B33 (antibody, human IgG2, kappa, V domains shown, also called VH DR4H58 / VL PH9L4) VH: EVQLVQSGAEVKKPGESLKISCKGSGYSFDSAYINWVRQMPGKGLEWMGIIRPGDSRTRYSPSFQGQVTISADKSISTAYLQWSSLKASDTAVYYCARDGYYFVGSIIYYGMDVWGQGTLVTVSS VL: not shown								binding result [12]: binds; binding result [13]: binds
